Results taken from paper PMC8602292, “Acyl carrier protein promotes MukBEF action in Escherichia coli chromosome organization-segregation” (Nature Communications, 2021).
Blank lines part the entries; values can stand above or below the molecule they belong to.

B1: MukB (wild type, MukB-His) (natural protein, Escherichia coli, UniProt P22523 1-1486, looked up)
chain: MIERGKFRSLTLINWNGFFARTFDLDELVTTLSGGNGAGKSTTMAAFVTALIPDLTLLHFRNTTEAGATSGSRDKGLHGKLKAGVCYSMLDTINSRHQRVVVGVRLQQVAGRDRKVDIKPFAIQGLPMSVQPTQLVTETLNERQARVLPLNELKDKLEAMEGVQFKQFNSITDYHSLMFDLGIIARRLRSASDRSKFYRLIEASLYGGISSAITRSLRDYLLPENSGVRKAFQDMEAALRENRMTLEAIRVTQSDRDLFKHLISEATNYVAADYMRHANERRVHLDKALEFRRELHTSRQQLAAEQYKHVDMARELAEHNGAEGDLEADYQAASDHLNLVQTALRQQEKIERYEADLDELQIRLEEQNEVVAEAIERQQENEARAEAAELEVDELKSQLADYQQALDVQQTRAIQYNQAIAALNRAKELCHLPDLTADCAAEWLETFQAKELEATEKMLSLEQKMSMAQTAHSQFEQAYQLVVAINGPLARNEAWDVARELLREGVDQRHLAEQVQPLRMRLSELEQRLREQQEAERLLADFCKRQGKNFDIDELEALHQELEARIASLSDSVSNAREERMALRQEQEQLQSRIQSLMQRAPVWLAAQNSLNQLSEQCGEEFTSSQDVTEYLQQLLEREREAIVERDEVGARKNAVDEEIERLSQPGGSEDQRLNALAERFGGVLLSEIYDDVSLEDAPYFSALYGPSRHAIVVPDLSQVTEHLEGLTDCPEDLYLIEGDPQSFDDSVFSVDELEKAVVVKIADRQWRYSRFPEVPLFGRAARESRIESLHAEREVLSERFATLSFDVQKTQRLHQAFSRFIGSHLAVAFESDPEAEIRQLNSRRVELERALSNHENDNQQQRIQFEQAKEGVTALNRILPRLNLLADDSLADRVDEIRERLDEAQEAARFVQQFGNQLAKLEPIVSVLQSDPEQFEQLKEDYAYSQQMQRDARQQAFALTEVVQRRAHFSYSDSAEMLSGNSDLNEKLRERLEQAEAERTRAREALRGHAAQLSQYNQVLASLKSSYDTKKELLNDLQRELQDIGVRADSGAEERARIRRDELHAQLSNNRSRRNQLEKALTFCEAEMDNLTRKLRKLERDYFEMREQVVTAKAGWCAVMRMVKDNGVERRLHRRELAYLSADDLRSMSDKALGALRLAVADNEHLRDVLRMSEDPKRPERKIQFFVAVYQHLRERIRQDIIRTDDPVEAIEQMEIELSRLTEELTSREQKLAISSRSVANIIRKTIQREQNRIRMLNQGLQNVSFGQVNSVRLNVNVRETHAMLLDVLSEQHEQHQDLFNSNRLTFSEALAKLYQRLNPQIDMGQRTPQTIGEELLDYRNYLEMEVEVNRGSDGWLRAESGALSTGEAIGTGMSILVMVVQSWEDESRRLRGKDISPCRLLFLDEAARLDARSIATLFELCERLQMQLIIAAPENISPEKGTTYKLVRKVFQNTEHVHVVGLRGFAPQLPETLPGTDEAPSQAS
notes: MukB, the SMC protein of Escherichia coli MukBEF; wild type; The end of the tag is read from the printed name 'MukB-His'; The same construct was used with co-purified AcpP or depleted of AcpP by an extended salt gradient on heparin; also called WT MukB; AcpP-depleted MukB; source: E. coli C3013I (NEB), pET vector, purified (TALON, HiTrap Heparin, Superdex 200); not shown: His tag, C-terminal, kept

Experiments:
[1] = biological target: MukB^KK (K1114E and K1125E) (Escherichia coli) (UniProt P22523)
[2] = biological target: B1
[3] = biological target: T1, MukB^KRK (K1114E, R1122E and K1125E) (Escherichia coli, UniProt P22523 1-1486, K1114E | R1122E | K1125E)
T1 construct: E. coli MukB, triple charge-reversed mutant; source: E. coli FL01 (mukB 3xFLAG C3013I), purified (TALON, HiTrap Heparin, Superdex 200); not shown: His tag, C-terminal, kept
T1 sequence (looked up): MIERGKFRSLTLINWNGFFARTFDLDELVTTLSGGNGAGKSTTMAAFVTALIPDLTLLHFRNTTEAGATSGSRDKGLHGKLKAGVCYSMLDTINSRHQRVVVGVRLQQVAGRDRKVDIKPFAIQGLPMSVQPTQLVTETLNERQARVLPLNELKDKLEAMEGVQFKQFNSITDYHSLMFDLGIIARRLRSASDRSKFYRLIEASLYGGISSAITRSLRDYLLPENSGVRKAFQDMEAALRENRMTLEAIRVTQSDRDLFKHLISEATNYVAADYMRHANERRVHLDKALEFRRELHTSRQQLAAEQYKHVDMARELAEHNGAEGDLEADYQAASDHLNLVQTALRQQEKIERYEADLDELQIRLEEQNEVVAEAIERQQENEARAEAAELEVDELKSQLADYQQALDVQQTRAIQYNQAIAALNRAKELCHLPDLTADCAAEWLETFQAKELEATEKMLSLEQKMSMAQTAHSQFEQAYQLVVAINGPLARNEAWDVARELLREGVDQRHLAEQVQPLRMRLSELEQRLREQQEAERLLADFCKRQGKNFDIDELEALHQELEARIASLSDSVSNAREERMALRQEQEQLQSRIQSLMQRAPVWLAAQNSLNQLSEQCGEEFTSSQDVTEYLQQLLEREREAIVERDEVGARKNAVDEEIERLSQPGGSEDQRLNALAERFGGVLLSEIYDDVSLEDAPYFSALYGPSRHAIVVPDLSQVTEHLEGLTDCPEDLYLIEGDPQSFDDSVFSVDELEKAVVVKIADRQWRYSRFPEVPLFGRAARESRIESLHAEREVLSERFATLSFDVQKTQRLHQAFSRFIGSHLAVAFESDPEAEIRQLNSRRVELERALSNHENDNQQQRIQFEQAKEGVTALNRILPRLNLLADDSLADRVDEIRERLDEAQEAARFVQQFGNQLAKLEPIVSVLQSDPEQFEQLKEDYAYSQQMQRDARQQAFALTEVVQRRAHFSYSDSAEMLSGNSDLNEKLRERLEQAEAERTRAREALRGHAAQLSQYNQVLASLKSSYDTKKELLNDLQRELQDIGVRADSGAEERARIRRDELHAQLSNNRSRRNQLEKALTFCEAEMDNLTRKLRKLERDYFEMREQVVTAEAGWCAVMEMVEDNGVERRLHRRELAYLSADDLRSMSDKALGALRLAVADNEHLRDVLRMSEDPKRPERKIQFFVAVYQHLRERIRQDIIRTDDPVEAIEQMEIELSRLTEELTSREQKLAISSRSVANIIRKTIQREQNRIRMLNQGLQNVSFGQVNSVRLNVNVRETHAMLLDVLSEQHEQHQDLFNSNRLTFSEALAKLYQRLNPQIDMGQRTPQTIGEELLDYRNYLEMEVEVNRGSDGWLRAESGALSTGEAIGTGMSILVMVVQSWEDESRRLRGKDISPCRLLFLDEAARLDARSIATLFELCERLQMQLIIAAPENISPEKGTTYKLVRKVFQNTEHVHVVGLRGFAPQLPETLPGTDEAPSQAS

[4] = biological target: MukB^N (MukB Neck) (Escherichia coli); assay: native MS; MukB^N or MukB^HN with co-purified AcpP; 200 mM ammonium acetate pH 8.0
[5] = biological target: MukB^HN (MukB Head-Neck) (Escherichia coli); assay: as above
[6] = biological target: MukB (wild type, MukB-His) (Escherichia coli) (UniProt P22523)
[7] = biological target: the molecule itself; assay: native MS; mixtures of MukB, MukE, MukF and AcpP at various concentrations of MukB; 200 mM ammonium acetate pH 8.0

ATPase activity with MukEF against increasing AcpP (up to 50 μM) (% of WT ATPase activity) [1]: 60
ATPase activity of AcpP-depleted MukB with MukF, without and with added recombinant AcpP (ATP molecules/MukB2/min) [2]: 29
ATPase activity with MukEF against increasing AcpP (up to 100 times excess, 50 μM) (ATP molecules/MukB2/min) [3]: 7.6
Molecule: Acyl Carrier Protein (AcpP), recombinant (from UniProt P0A6A8 1-78) (natural protein)

stoichiometry N [4]: 2
Molecule: MukB^N (MukB Neck) (domain or fragment)

stoichiometry N [4]: 1
stoichiometry N [5]: 1
ATPase activity of MukBF co-purified with AcpP (ATP molecules/MukB2/min) [6]: 27.2
Molecule: Acyl Carrier Protein (AcpP), native, co-purified from the E. coli host (from UniProt P0A6A8 1-78) (natural protein)

Molecule: B1
binding result [7]: binds
